For this data set the following is noted: ubiquitination at K57.

Two substances from PMC10424212 can be followed below.

For ALKBH5: K57R, the degradation_or_half_life entry is given as “increases”.

Consider “ALKBH5: K57R (purified FLAG-tagged protein, in vitro demethylation assay)”, for which the enzymatic_activity result was “no change”.
